In publication PMC9635822:
Blank lines part the entries; values can stand above or below the substance they belong to.

Key:
Experiment in all cases: optical tweezers, force between two trapped cells
[1] = molecular target: AGA2-CL7 displayed on S. cerevisiae cells (ScΦ) (UniProt Q47112)
[2] = molecular target: AGA2-SpyTag displayed on S. cerevisiae cells (ScA)
[3] = molecular target: AGA2-SpyCatcher displayed on S. cerevisiae cells (ScB)
[4] = molecular target: AGA2-Im7 displayed on S. cerevisiae cells (ScΨ) (UniProt Q03708)
UniProt Q03708, sequence (Q03708 whole entry): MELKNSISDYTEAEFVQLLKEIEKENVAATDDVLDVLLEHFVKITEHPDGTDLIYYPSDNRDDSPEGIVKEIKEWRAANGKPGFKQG

- interaction force between the two cells [1]: < 10 pN
Substance: AGA2-SpyCatcher displayed on S. cerevisiae cells (ScB) (designed binder)

Substance: AGA2-SpyTag displayed on S. cerevisiae cells (ScA) (peptide)
- interaction force between the two cells [2]: < 10 pN
- force needed to pull apart the new cells of the cluster [3]: < 248 pN
- pulling force up to which the two cells remained attached [3]: 335 pN

- force needed to pull apart the new cells of the cluster [4]: < 351 pN
- pulling force up to which the two cells remained attached [4]: 335 pN
Substance: AGA2-CL7 displayed on S. cerevisiae cells (ScΦ) (from UniProt Q47112 371-576) (domain or fragment)
